Patent publication US20230329294A1 (CLARA FOODS, published 2023)

Molecular target: bovine trypsin (bovine, UniProt P00760 24-246)
Experiment: cell-based or functional assay

Sequence of bovine trypsin (P00760 24-246): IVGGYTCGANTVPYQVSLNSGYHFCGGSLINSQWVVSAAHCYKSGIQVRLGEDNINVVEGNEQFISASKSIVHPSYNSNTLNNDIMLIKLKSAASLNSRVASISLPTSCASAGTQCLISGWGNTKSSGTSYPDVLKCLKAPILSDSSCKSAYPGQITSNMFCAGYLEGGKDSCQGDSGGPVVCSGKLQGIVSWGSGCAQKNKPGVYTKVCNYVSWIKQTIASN

Trypsin inhibition activity: 13700 TIU/g
B1: native chicken ovomucoid (other)
chain: AEVDCSRFPNATDKEGKDVLVCNKDLRPICGTDGVTYTNDCLLCAYSIEFGTNISKEHDGECKETVPMNCSSYANTTSEDGKVMVLCNRAFNPVCGTDGVTYDNECLLCAHKVEQGASVDKRHDGGCRKELAAVSVDCSEYPKPDCTAEDRPLCGSDNKTYGNKCNFCNAVVESNGTLTLSHFGKC
modifications: complex branched N-linked glycosylation (that includes mannose)
